# Assay results reported in patent US20190092872A1 (Hoffmann-La Roche, published 2019).
# B1: obinutuzumab N297D (antibody)
# heavy: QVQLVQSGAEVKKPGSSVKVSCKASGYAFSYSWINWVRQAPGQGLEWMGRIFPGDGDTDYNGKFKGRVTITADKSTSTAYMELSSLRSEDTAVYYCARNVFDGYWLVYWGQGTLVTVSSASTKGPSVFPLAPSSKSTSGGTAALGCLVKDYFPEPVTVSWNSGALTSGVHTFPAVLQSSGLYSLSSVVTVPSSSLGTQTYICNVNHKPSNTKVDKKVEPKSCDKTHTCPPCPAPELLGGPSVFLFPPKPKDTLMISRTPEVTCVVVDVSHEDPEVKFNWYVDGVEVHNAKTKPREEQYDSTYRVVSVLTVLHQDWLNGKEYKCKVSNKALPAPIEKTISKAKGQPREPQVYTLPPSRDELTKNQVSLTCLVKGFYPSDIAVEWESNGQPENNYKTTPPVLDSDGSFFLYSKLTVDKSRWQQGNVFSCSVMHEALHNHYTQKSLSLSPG
# VL: DIVMTQTPLSLPVTPGEPASISCRSSKSLLHSNGITYLYWYLQKPGQSPQLLIYQMSNLVSGVPDRFSGSGSGTDFTLKISRVEAEDVGVYYCAQNLELPYTFGGGTKVEIK
# modifications: N297D removes the Fc N-glycosylation site, so the antibody is aglycosylated ('aglyco').
# notes: IgG1 expressed in HEK-EBNA or HEK293 and purified by protein A and size exclusion chromatography; also called GA101 N297D; GA101 aglyco (N297D)
# Tests used:
# FcγRI [1] = target: T1, FcγRI (UniProt P12314 16-288, limits assumed); experiment: SPR steady state affinity; reference is the IgG1 Wt affinity for FcγRI
# T1 construct: Captured from a 100 nM solution on immobilized anti-His antibody; also called FcγRI receptor; FcγRIa
# Method: (§1) Biacore T100 system (GE Healthcare) with high immobilized anti-His capturing antibody (GE Healthcare). Immobilization of the anti-His capturing antibody was performed on a CMS chip using the standard amine coupling kit (GE Healthcare) at pH 4.5 10 mM sodium acetate and 10 μg/ml anti-His solution. The immobilization level of anti-His reached more than 10.000 RU. FcγRI was applied in a 100 nM solution, in the running buffer HBS-P+ and captured with a pulse of 60 sec at a flow rate of 30 μl per min. […] The dissociation phase was monitored for 180 sec. The surface was regenerated by a 60 sec washing step with a 10 mM Glycine pH 1.5 at a flow rate of 30 μl per min. The stabilization period took 60 sec. The Biacore T100 evaluation software was used for data analysis.
# (§2) For the steady state affinity concentration determination the response values from the end of association were used to plot the response against the concentration. The Biacore T100 evaluation software was used to calculate the affinity of samples for immobilized FcγRI receptor from the plot.
# FcγRI [2] = target: T1, FcγRI; experiment: SPR steady state affinity (Biacore T100), FcγRI captured via anti-His antibody, antibody 1000-62.5 nM
# Method: as §1, §2
# FcγRIIIA = target: T2, FcγRIIIA (UniProt P08637 17-208, limits assumed); experiment: SPR (Biacore T100), FcγRIIIA with His tag captured on immobilised anti-His antibody, antibody injected (Example 9)
# T2 construct: Captured from a 200 nM solution on immobilized anti-His antibody; also called CD16
# Method: The SPR interaction analysis of captured FcγRIIIA and IgG1 Fc variants was performed on a Biacore T100 system (GE Healthcare) with high immobilized anti-His capturing antibody (GE Healthcare). Immobilization of the anti-His capturing antibody was performed on a CMS chip using the standard amine coupling kit (GE Healthcare) at pH 4.5 10 mM sodium acetate and 10 μg/ml anti-His solution. The immobilization level of anti-His reached more than 10.000 RU. FcγRIIIA was applied in a 200 nM solution, in the running buffer HBS-P+ and captured with a pulse of 60 sec at a flow rate of 30 μl per min. […] The dissociation phase was monitored for 180 sec. The surface was regenerated by a 60 sec washing step with a 10 mM Glycine pH 1.5 at a flow rate of 30 μl per min. The stabilization period took 60 sec. The Biacore T100 evaluation software was used for data analysis.
# FcγRI [3] = target: T1, FcγRI; experiment: SPR steady state affinity fit, FcγRI captured on anti-His antibody; beside it offset (RU) 26.88 and Chi² (RU²) 7.76
# Method: as §1, §2
# T1 sequence (P12314 16-288 limits assumed): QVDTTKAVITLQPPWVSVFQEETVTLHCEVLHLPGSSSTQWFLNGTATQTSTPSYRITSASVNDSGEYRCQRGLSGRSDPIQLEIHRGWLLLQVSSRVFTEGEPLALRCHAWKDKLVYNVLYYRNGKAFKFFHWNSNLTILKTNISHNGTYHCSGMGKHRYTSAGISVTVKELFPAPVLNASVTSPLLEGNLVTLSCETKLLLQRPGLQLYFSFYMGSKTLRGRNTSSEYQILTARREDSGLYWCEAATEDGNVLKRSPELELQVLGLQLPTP
# T2 sequence (P08637 17-208 limits assumed): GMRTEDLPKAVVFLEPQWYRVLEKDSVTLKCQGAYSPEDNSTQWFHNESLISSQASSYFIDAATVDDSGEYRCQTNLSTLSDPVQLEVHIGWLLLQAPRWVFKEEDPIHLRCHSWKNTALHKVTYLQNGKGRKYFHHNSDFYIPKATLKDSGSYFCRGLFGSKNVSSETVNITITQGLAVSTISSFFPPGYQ
binder,measurement,setting,value
B1,fold below the IgG1 Wt affinity,FcγRI [1],~50 fold
same,Kd,FcγRI [2],234 nM
same,binding result,FcγRIIIA,no binding (tested: 1000 nM)
same,Kd,FcγRI [3],234 nM
